One data set addresses T1, WD40 domain of Gemin5 (Homo sapiens, UniProt Q8TEQ6).
T1 sequence (Q8TEQ6 1-739): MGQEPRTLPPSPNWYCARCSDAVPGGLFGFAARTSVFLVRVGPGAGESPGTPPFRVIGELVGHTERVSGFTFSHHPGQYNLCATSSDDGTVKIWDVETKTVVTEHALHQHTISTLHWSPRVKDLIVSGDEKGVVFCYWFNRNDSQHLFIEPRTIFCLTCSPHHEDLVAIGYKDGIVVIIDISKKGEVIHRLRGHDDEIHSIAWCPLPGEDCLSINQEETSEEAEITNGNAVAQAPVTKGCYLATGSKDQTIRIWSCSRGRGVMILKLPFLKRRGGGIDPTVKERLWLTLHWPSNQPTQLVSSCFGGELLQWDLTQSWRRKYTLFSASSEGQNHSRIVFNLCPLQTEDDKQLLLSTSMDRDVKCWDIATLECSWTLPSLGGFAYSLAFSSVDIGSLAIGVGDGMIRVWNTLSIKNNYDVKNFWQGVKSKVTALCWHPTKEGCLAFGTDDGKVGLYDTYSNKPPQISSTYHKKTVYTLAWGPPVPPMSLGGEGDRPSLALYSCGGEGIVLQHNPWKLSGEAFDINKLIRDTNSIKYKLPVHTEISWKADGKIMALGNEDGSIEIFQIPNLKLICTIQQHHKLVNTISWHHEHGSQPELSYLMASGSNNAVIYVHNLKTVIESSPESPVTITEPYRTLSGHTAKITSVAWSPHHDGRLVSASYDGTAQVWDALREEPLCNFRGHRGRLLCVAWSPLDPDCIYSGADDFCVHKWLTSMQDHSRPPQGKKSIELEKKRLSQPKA
Description: isothermal titration calorimetry. Type of data set: binding. On the technique in general: Isothermal titration calorimetry measures the heat released or taken up as one component is titrated into another.

For data set [1], the target named is T2, Gemin5 WD40 domain (Homo sapiens, UniProt Q8TEQ6 1-739). Briefly: crystal structure.
The target in data set [2] is T2, Gemin5 WD40 domain. Description: ITC.
The target of another data set is Gemin5 WD40 E197A (Homo sapiens, UniProt Q8TEQ6 1-739, E197A). Briefly: ITC.
Another data set concerns the target Gemin5 WD40 Y474A (Homo sapiens, UniProt Q8TEQ6 1-739, Y474A). Briefly: ITC.

The source of these data is article PMC5131778 (Genes & Development, 2016).

Gemin5 WD40 E197A, sequence (Q8TEQ6 1-739 E197A): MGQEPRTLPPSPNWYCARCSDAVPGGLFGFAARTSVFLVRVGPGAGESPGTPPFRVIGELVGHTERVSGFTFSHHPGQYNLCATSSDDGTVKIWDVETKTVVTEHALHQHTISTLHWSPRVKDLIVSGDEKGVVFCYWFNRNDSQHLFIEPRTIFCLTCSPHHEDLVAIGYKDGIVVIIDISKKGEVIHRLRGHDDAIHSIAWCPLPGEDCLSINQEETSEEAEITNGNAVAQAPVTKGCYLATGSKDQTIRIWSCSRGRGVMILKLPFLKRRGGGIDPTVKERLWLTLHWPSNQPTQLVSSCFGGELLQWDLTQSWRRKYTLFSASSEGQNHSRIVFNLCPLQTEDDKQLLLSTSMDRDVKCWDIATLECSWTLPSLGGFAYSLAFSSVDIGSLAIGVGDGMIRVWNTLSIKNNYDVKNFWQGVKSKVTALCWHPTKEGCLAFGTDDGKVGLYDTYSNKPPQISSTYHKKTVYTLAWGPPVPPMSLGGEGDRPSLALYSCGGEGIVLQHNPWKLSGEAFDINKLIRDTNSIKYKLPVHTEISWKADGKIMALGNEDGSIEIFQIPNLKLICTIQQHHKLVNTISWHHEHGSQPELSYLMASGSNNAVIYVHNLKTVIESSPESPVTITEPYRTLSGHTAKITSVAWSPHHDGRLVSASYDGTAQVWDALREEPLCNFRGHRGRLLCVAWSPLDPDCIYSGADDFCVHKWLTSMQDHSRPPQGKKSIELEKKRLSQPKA

In general, Kd refers to a measure of binding affinity in units of concentration. A high value points to a looser complex. With `C[n+]1cn([C@@H]2O[C@H](COP(=O)(O)OP(=O)(O)OP(=O)(O)OC[C@H]3O[C@@H](n4cnc5c(=O)[nH]c(N)nc54)[C@H](O)[C@@H]3O)[C@@H](O)[C@H]2O)c2nc(N)[nH]c(=O)c21` [m^7GpppG], the Kd on WD40 domain of Gemin5 is 4 µM.
Regarding AAUUUUUGAG (ssRNA) [pre-U4 (118-127) crystal RNA], the binding result with Gemin5 WD40 domain [1] is “binds”.
For AAUUCUUG (ssRNA) [pre-U4 (118-125) U122C], the binding result with Gemin5 WD40 domain [2] is listed as “no binding”.
The same measure, in the same setting: then AACUUUUG (ssRNA) [pre-U4 (118-125) U120C], with “no binding”.
In the case of AAUCUUUG (ssRNA) [pre-U4 (118-125) U121C], binding with Gemin5 WD40 domain [2] was characterised by a dissociation constant (Kd) of 11 ± 2 µM.
In the data set with Gemin5 WD40 E197A, AAUUUUUG (ssRNA) [pre-U4 (118-125) Sm site] registered a Kd of 40 ± 5 µM. Also, in the data set with Gemin5 WD40 Y474A, the binding result is on record as “binds”.
Regarding AAUUGUUG (ssRNA) [pre-U4 (118-125) U122G], the binding result in the data set with Gemin5 WD40 domain [2] is reported as “no binding”.
